Experimental data as given in the supplement of paper PMC9732359.
± gives the uncertainty stated by the source.

Test: protein stability index of a GFP-peptide fusion (yeast GPS) (PSI 1-4); higher = more stable; sorted into four equal gates, so the index is relative within each strain
Outline: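 Tiled yeast protein peptides of 17 residues were each joined downstream of GFP, on plasmids that also express Cherry. The pooled library was maintained in yeast, and mid-log cultures in leucine-free medium were sorted into four equal gates on the GFP/Cherry ratio. Plasmids from every gate were amplified by PCR and sequenced on Illumina, with barcodes linking reads to strains. The protein stability index of a peptide is its gate-number-weighted read frequency summed over the gates.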

Sequence | protein stability index (doa10∆) | protein stability index (pdr5∆) | protein stability index (san1∆) | protein stability index (ubr1∆)
NAKESNYTDLIWFPEDF [MED1] | 3.06 ± 0.094 | 3.47 ± 0.17 | 3.17 ± 0.12 | 2.28 ± 0.052
NALTVGDFDKFDSLIKV [RPN9] | 2.14 ± 0.13 | 1.59 ± 0.11 | 1.3 ± 0.14 | 1.3 ± 0.11
NAVTAAAANNNIKPVEQ [GAL11] | 2.66 ± 0.064 | 2.66 ± 0.051 | 2.77 ± 0.062 | 2.84 ± 0.039
NCPHSDSTQLLETILEE [SSN2] | 2.81 ± 0.1 | 3.1 ± 0.088 | 3.11 ± 0.13 | 2.94 ± 0.063
NDFANNLPKEGDIVLTR [CSL4] | 2.89 ± 0.15 | 3.32 ± 0.17 | 2.44 ± 0.12 | 2.97 ± 0.19
NDLRDMILNYNPSQGVS [UBP6] | 2.21 ± 0.072 | 3.23 ± 0.12 | 3.16 ± 0.077 | 3.18 ± 0.064
NDNNLKKLESQESLVKL [RPN5] | 3.01 ± 0.071 | 2.96 ± 0.064 | 2.76 ± 0.06 | 2.97 ± 0.071
NDRKQTTVSNDLENSPL [SSN2] | 2.98 ± 0.079 | 3.11 ± 0.056 | 3.13 ± 0.041 | 3.08 ± 0.038
NDSKEESTTEATGNESQ [YLR335W/NUP2] |  | 3.14 ± 0.18 | 2.97 ± 0.22 | 3.35 ± 0.1
NEAEQVYLSLLDKDSSQ [RPN6] | 3.03 ± 0.2 | 3.29 ± 0.076 |  | 3.45 ± 0.22
NEEATPIPSSETKADGI [RRP6] | 3.04 ± 0.053 | 3.18 ± 0.058 | 3.04 ± 0.049 | 3.01 ± 0.04
NEGLVEYIDAEEEESIL [RPB2] | 3.36 ± 0.081 | 3.46 ± 0.085 | 3.24 ± 0.078 | 3.37 ± 0.087
NEIANSIIQSKQDCVDW [BRR2] | 2.61 ± 0.069 | 2.87 ± 0.071 | 2.73 ± 0.071 | 2.88 ± 0.079
NENENFGYDIPLLDIVL [YML103C/NUP188] | 2.48 ± 0.053 | 2.81 ± 0.064 | 2.92 ± 0.049 | 2.56 ± 0.056
NENETRDKVCKQINEAR [PGD1] | 3.14 ± 0.14 | 3.58 ± 0.19 | 3.28 ± 0.079 | 3.09 ± 0.1
NENSNCLLSIPKSTKGK [YML103C/NUP188] | 2.04 ± 0.05 | 1.99 ± 0.044 | 2.61 ± 0.05 | 2.35 ± 0.043
NESSSNTTVISDKQRRL [DIS3] | 3.15 ± 0.086 | 3.21 ± 0.086 | 2.98 ± 0.061 | 3.05 ± 0.058
NFEAVFERLVPRGTAKL [SMC3] | 2.93 ± 0.15 | 2.84 ± 0.16 |  | 2.83 ± 0.042
NFEKILLTCYELEKKYH [SRB8] | 1.98 ± 0.1 | 2.34 ± 0.1 |  | 3.71 ± 0.21
NFIEPGINQILGNEKNQ [CDC53] |  |  |  | 2.75 ± 0.2
NFKGLAKEKERMLEEAI [YIL149C/MLP2] | 3.4 ± 0.095 | 3.56 ± 0.09 | 3.48 ± 0.071 | 3.38 ± 0.083
NFTSPTAVVNNAAPANV [SWI1] | 2.86 ± 0.057 | 2.77 ± 0.08 | 2.69 ± 0.088 | 2.91 ± 0.053
NGALDPKMGVSSSSLEC [RPO31] | 3.21 ± 0.097 | 3.41 ± 0.049 | 3.22 ± 0.067 | 3.21 ± 0.047
NGCSGADVKGVCTEAGM [RPT6] | 3.15 ± 0.18 | 3.7 ± 0.16 | 3.25 ± 0.11 | 3.1 ± 0.11
NGDLTVSLCAKNMGLVP [SSN2] | 2.22 ± 0.081 | 2.23 ± 0.079 | 2.13 ± 0.091 | 2.17 ± 0.087
NGEEIVGFWKDDGDDED [MTR3] | 2.52 ± 0.11 | 2.66 ± 0.074 | 2.89 ± 0.091 | 3.45 ± 0.087
NGITLALIDAGISMFDY [SKI6] | 1.38 ± 0.068 | 1.51 ± 0.042 | 1.59 ± 0.14 | 1.56 ± 0.038

Sequence | protein stability index (doa10∆) | protein stability index (pdr5∆) | protein stability index (san1∆) | protein stability index (ubr1∆)
NGKDNNNESNKNNNGDE [MED2] | 3.12 ± 0.053 | 3.17 ± 0.042 | 3.23 ± 0.034 | 3.15 ± 0.035
NGKIWVKCEELSNTLAC [RRP40] | 3.29 ± 0.12 | 3.24 ± 0.13 | 3.26 ± 0.067 | 3.6 ± 0.16
NGLLNEISRLKTSLSIK [SMC2] | 3.1 ± 0.21 | 3.25 ± 0.11 | 3.12 ± 0.11 | 3.11 ± 0.15
NGNLTSNQLISNYAASN [SWI1] | 3.13 ± 0.12 | 2.89 ± 0.1 | 2.98 ± 0.11 | 3.1 ± 0.055
NGVNVQIDQLNRLLPNL [GRR1] | 2.86 ± 0.044 | 3.07 ± 0.05 | 2.88 ± 0.039 | 2.91 ± 0.04
NHFSLSYKDSGLWGFST [COR1] | 2.96 ± 0.077 | 3.23 ± 0.073 | 3.15 ± 0.046 | 3.02 ± 0.054
NHWRQNKGRAVYINPSG [BRR2] | 2.97 ± 0.12 | 2.78 ± 0.089 | 2.85 ± 0.074 | 3.16 ± 0.1
NIATQQNMQQSLQQMQH [GAL11] | 2.75 ± 0.076 | 2.92 ± 0.091 | 2.68 ± 0.17 | 2.86 ± 0.069
NIDTITDAMTESQPKQT [MCD1] | 2.71 ± 0.14 | 3.02 ± 0.11 | 3 ± 0.076 | 3.32 ± 0.087
NIKLLNNRMGSYDCTGV [POP1] | 2.85 ± 0.078 | 2.8 ± 0.059 | 2.83 ± 0.071 | 3 ± 0.042
NIKSSISNGNLATGPNL [YOR098C/NUP1] | 2.77 ± 0.09 | 3.18 ± 0.084 | 2.99 ± 0.11 | 2.89 ± 0.065
NILWRIADKTTYDKETI [SIR4] | 3.2 ± 0.12 | 3.16 ± 0.084 | 2.98 ± 0.1 | 3.17 ± 0.052
NIMSASGGLFGNQQQQL [YGL172W/NUP49] | 3.25 ± 0.067 | 3.12 ± 0.086 | 3.29 ± 0.1 | 3.2 ± 0.042
NINAKMETRINILLRER [YIL149C/MLP2] | 2.98 ± 0.18 | 3.35 ± 0.12 | 2.61 ± 0.12 | 3.15 ± 0.1
NIPWDVPGMPAPIKKII [PRP8] | 2.75 ± 0.3 | 2.91 ± 0.19 | 2.8 ± 0.28 | 3.05 ± 0.2
NISKSRAKPVTNSSILL [RRP6] | 2.14 ± 0.063 | 2.23 ± 0.065 | 2.23 ± 0.1 | 2.38 ± 0.097
NISRDFQSYIVSSLPGS [COR1] | 1.63 ± 0.093 | 2.14 ± 0.095 | 2.08 ± 0.098 | 1.85 ± 0.048
NIVNDFTPEEEAAIRRE [SKP1] | 2.28 ± 0.14 | 2.73 ± 0.079 | 3.08 ± 0.13 | 3.02 ± 0.086
NKEMHTDLGKDIPFFPS [SSN2] | 2.34 ± 0.062 | 2.01 ± 0.066 | 2.52 ± 0.066 | 2.76 ± 0.055
NKIDQSLQYIERQQDEL [YJL041W/NSP1] | 3.18 ± 0.15 | 3.19 ± 0.12 | 3.25 ± 0.096 | 2.93 ± 0.061
NKLSSILQNEHDYWNKI [SRB4] | 2.37 ± 0.069 | 2.41 ± 0.05 | 2.25 ± 0.099 | 2.47 ± 0.043
NKSISDEITEDMFEMSD [SSN2] | 3.03 ± 0.075 | 3.1 ± 0.075 | 2.82 ± 0.058 | 3.1 ± 0.05
NKYQYSLKQYAGNLITT [SRP68] | 3.23 ± 0.23 | 1.44 ± 0.14 | 1.7 ± 0.11 | 1.54 ± 0.06
NLCGDISLEALNFYITN [SIR3] | 2.55 ± 0.064 | 2.73 ± 0.059 | 2.6 ± 0.053 | 2.74 ± 0.032
NLDFDPRDVIKGKDFEI [FAS1] | 3.47 ± 0.25 | 2.9 ± 0.29 | 3.32 ± 0.11 | 3.46 ± 0.1
NLDNLQKVSQLESADKQ [POP4] | 3.06 ± 0.1 | 2.59 ± 0.1 | 3.01 ± 0.092 | 2.86 ± 0.18
